In patent US20130273046A1 (UNIVERSITE DE LAUSANNE, published 2013):
Changes are numbered by the printed parent chain.

T1: human Fas-Fc (human, UniProt P25445 26-170, limits assumed)
T1 construct: Negative control protein; also called hFas-Fc; not shown: Fc portion
T1 sequence (looked up): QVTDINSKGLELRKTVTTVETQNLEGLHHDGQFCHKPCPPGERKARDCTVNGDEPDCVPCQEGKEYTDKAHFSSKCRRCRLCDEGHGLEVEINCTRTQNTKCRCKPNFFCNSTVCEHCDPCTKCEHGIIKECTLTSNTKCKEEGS

T2: human EDAR domains I and II fused to Fc of human IgG1 (human, UniProt Q9UNE0 27-114)
T2 construct: Tested as supernatant of transfected 293T cells; also called CRD1 and CRD2 EDAR-Fc truncation protein; fragment made up of domains I and II; not shown: Fc region of human IgG1
T2 sequence: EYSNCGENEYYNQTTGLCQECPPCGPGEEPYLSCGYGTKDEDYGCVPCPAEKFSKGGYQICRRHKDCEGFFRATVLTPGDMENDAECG

T3: human EDAR domain I alone fused to Fc of human IgG1 (human, UniProt Q9UNE0 27-72)
T3 construct: also called CRD1 EDAR-Fc truncation protein; not shown: Fc region of human IgG1
T3 chain: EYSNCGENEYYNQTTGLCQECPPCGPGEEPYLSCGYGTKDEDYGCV

T4: hEDAR-Fas on Fas-deficient Jurkat cells (human, UniProt P25445 169-335, limits assumed)
T4 sequence: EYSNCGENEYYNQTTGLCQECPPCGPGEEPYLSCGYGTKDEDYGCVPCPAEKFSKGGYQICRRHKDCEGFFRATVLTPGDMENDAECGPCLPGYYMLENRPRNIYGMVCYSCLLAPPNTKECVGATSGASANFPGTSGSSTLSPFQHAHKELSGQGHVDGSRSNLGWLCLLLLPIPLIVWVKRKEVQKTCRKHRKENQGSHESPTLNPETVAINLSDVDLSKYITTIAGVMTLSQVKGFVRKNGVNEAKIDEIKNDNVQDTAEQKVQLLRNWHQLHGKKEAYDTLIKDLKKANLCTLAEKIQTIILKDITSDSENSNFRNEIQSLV

T5: mEDAR-Fas on Fas-deficient Jurkat cells (mouse; human, UniProt P25445 169-335, limits assumed)
T5 sequence: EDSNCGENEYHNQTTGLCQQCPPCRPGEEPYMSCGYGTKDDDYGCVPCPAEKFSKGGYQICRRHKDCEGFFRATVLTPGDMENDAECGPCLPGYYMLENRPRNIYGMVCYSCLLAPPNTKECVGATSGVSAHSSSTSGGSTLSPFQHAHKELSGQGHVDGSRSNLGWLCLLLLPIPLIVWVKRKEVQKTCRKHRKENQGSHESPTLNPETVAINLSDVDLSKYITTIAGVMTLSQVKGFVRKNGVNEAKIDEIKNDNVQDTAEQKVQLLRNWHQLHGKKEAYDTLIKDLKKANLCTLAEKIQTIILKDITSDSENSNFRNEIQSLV

T6: human EDAR domain II alone fused to Fc of human IgG1 (human, UniProt Q9R187 73-114 (mouse entry), limits assumed)
T6 construct: also called CRD2 EDAR-Fc truncation protein; not shown: Fc region of human IgG1
T6 chain: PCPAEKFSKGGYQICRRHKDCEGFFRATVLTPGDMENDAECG

T7: human EDAR stalk domain alone fused to Fc of human IgG1 (human, limits assumed)
T7 construct: also called stalk EDAR-Fc truncation protein; not shown: Fc region of human IgG1
T7 chain: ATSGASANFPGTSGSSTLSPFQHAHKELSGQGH

T8: Flag-human APRIL (human, UniProt O75888 110-250, limits assumed)
T8 construct: Control antigen; not shown: Flag tag
T8 sequence (looked up): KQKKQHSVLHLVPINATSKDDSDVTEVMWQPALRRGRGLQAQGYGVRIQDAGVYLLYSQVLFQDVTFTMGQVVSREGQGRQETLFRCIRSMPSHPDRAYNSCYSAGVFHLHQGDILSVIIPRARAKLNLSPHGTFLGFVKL

B1: mAbEDAR6 (antibody, IgG2a, V domains shown)
VH: EVQLQQSGPELVKPGASVKMSCKASGYSFTGYNMHWVKQSHGKSLEWIGYIDPYNGATSKNQKFKGKATLTVDKSSTTAYIQLNSLTSEDSAVYYCARYYYGDYHWYFDVWGAGTTVTVSS
VL: DVVMTQTPLSLPVSLGDQASISCRSSQSLVHSNGNTYLHWYLQQPGQSPKLLIYKVSNRFSGVPDRFSGSGSGTDFTLKISRVEAEDLGVYFCSQHTHVPPTFGAGTKLELKR
B2: mAbEDAR5 (antibody, IgG2b, V domains shown)
VH: QVQLKQSGPGLVQPSQSLSITCTVSGFSLSNYGVHWIRQSPGKGLEWLGVIWGGGSTDYNAAFISRLSISKDNSKSQVFFKMNSLQADDTAIYYCASYYGYYDWFAYWGQGTLVTVSA
VL: EIVLTQSPTTMAASPGEKITITCSASSIISSNYLHWYQQKPGFSPKPLIYRTSNLASGVPARFSGSGSGTSYSLTIGTMEAEDVATYYCQQGSSIPRTFGSGTKLEIKR
B3: Fc-EDA1 (Fc fusion, UniProt Q92838 245-391, looked up, not shown: a dimerising Fc or GST)
chain: ENQPAVVHLQGQGSAIQVKNDLSGGVLNDWSRITMNPKVFKLHPRSGELEVLVDGTYFIYSQVEVYYINFTDFASYEVVVDEKPFLQCTRSIETGKTNYNTCYTAGVCLLKARQKIAVKMVHADISINMSKHTTFFGAIRLGEAPAS
B4: mAbEDAR1 (antibody, IgG1, V domains shown)
VH: EVPLEESGGGLVKPGGSRKLSCAASGFTFSDHGMHWVRQAPEKGLEWIAYISSGSSNVYYSDTVKGRFTISRDNAKNTLFLQMTSLRSEDTAMYYCARRELLRFYFDVWGAGTTVTVSS
VL: DIQMTQTTSSLSASLGDRVTISCRASQDIGNHLNWYQQKPDGTVKLLIYYTSRIHSGVPSRFSGSGSGTDYSLTISNLEQEDIATYFCQQGNTLPWTFGGGTKLEIKR
notes: also called anti-EDAR mAb mAbEDAR1
B5: mAbEDAR3 (antibody, IgG1, V domains shown)
VH: B4 VH with H32Y, I48V, N57A, V58I, S61A, N77S, L101I, F104Y
VL: B4 VL with T7S, G30S, H32N, K39R, I54S, H55Q, I83V, Q89H, N92K, W96Y
notes: also called anti-EDAR mAb mAbEDAR3

Tests used:
human Fas-Fc [1] = molecular target: T1, human Fas-Fc; assay: Western blot, 20 ng hFas-Fc (FIG. 7B)
Description: (§1) The weaker signal obtained with mouse EDAR might be explained by the lower amount of mouse EDAR-Fc loaded on the gel. Binding specificity is established by showing that none of the mAbEDARs does bind to Fas-Fc and Flag-human APRIL (while Flag-human APRIL is recognized by an anti-APRIL mAb). […] The band recognized by mAbEDAR5 in the BSA lane is probably due to a cross-contamination of EDAR-Fc in the neighboring lane.

mouse EDAR-Fc = molecular target: T9, mouse EDAR-Fc (mouse); assay: ELISA on mouse EDAR-Fc (FIG. 9)
T9 construct: also called mouse EDAR (1-183)-Fc; soluble mouse EDAR-Fc fusion protein
Description: FIG. 9. Epitope mapping of anti-EDAR monoclonal antibodies on recombinant human EDAR by ELISA. (A) Schematic linear representation of human EDAR showing the position of cystein residues (thin horizontal lines), of the putative N-linked glycosylation site (thick horizontal line, N), of the six structural modules (rectangles with rounded corners) composing the three cystein-rich domains (CRD1, CRD2, CRD3), of the transmembrane domain (rectangle, TMD), of the signal peptide (Leader), of the stalk and of the intracellular domain (ID). Amino acid numbers at the junctions of interest are indicated. The arrow indicates the predicted cleavage site of the signal peptide. The scheme is drawn to scale, except for the intracellular domain. (B) Wells of ELISA plates were coated with goat anti-human IgG antibody, blocked, and further incubated with human EDAR-Fc, mouse EDAR-Fc or the indicated human EDAR-Fc truncation proteins in cell supernatants of transfected cells. […] Binding of mAbEDARs were monitored with horseradish peroxydase-coupled anti-mouse IgG antibody.
In order to obtain antibodies recognizing both human and mouse EDAR, a feature which would considerably facilitate pre-clinical development of drug candidates, EDAR-deficient mice were immunized with human EDAR. It was then assessed whether monoclonal antibodies generated from these mice indeed recognized EDAR from these two animal species. […]

[2] = molecular target: T2, human EDAR domains I and II fused to Fc …; assay: capture ELISA on EDAR-Fc truncation proteins
Description: (§2) Epitope mapping of anti-EDAR monoclonal antibodies on recombinant human EDAR by ELISA. (A) Schematic linear representation of human EDAR showing the position of cystein residues (thin horizontal lines), of the putative N-linked glycosylation site (thick horizontal line, N), of the six structural modules (rectangles with rounded corners) composing the three cystein-rich domains (CRD1, CRD2, CRD3), of the transmembrane domain (rectangle, TMD), of the signal peptide (Leader), of the stalk and of the intracellular domain (ID). Amino acid numbers at the junctions of interest are indicated. The arrow indicates the predicted cleavage site of the signal peptide. The scheme is drawn to scale, except for the intracellular domain. (B) Wells of ELISA plates were coated with goat anti-human IgG antibody, blocked, and further incubated with human EDAR-Fc, mouse EDAR-Fc or the indicated human EDAR-Fc truncation proteins in cell supernatants of transfected cells. One well was also left without cell supernatant (Ctrl). The efficient capture of the various EDAR-Fc proteins was controlled using horseradish peroxydase-coupled donkey anti-human IgG antibody. Binding of mAbEDARs were monitored with horseradish peroxydase-coupled anti-mouse IgG antibody.
(§3) EDAR is a transmembrane protein whose extracellular part is composed of three membrane distal cystein-rich domains (CRDs) and of a proximal membrane stalk domain (FIG. 9A). Constructs coding for the entire EDAR protein, domains I and II, domains II and III, domain III and the stalk domain, domains I, II and III alone and the stalk domain alone were assembled with the Fc region of human IgG1, inserted into a mammalian expression vector and transiently transfected in 293T cells. […] The other fragments were not recognized, in particular the fragments made up of either domain I or II alone. mAbEDAR5, 6, 12 and 13 specifically recognized domain I, alone or together with domain II. mAbEDAR9, 14 and 15 only recognized Fc constructs containing the entire EDAR extracellular domain.

[3] = molecular target: T3, human EDAR domain I alone fused to Fc …; assay: capture ELISA on EDAR-Fc truncation proteins
Description: as §2, §3

human EDAR-Fc = molecular target: T10, human EDAR-Fc (human); assay: Western blot, non-reducing, 20 ng human EDAR-Fc (FIG. 7B)
T10 construct: also called hEDAR-Fc; human EDAR (1-183)-Fc
Description: as §1

[4] = molecular target: EDAR-Fas fusion protein on Fas-deficient Jurkat cells (human or mouse EDAR not told apart) (human, UniProt P25445 169-335); assay: cell-based or functional assay
[5] = molecular target: T4, hEDAR-Fas on Fas-deficient Jurkat cells; assay: cell-based or functional assay
[6] = molecular target: T5, mEDAR-Fas on Fas-deficient Jurkat cells; assay: cell-based or functional assay
[7] = molecular target: T6, human EDAR domain II alone fused to Fc …; assay: capture ELISA on EDAR-Fc truncation proteins (FIG. 9)
Description: as §2, §3

[8] = molecular target: T7, human EDAR stalk domain alone fused to …; assay: as above
Description: as §2, §3

[9] = molecular target: T3, human EDAR domain I alone fused to Fc …; assay: as above
Description: as §2, §3

human Fas-Fc [10] = molecular target: T1, human Fas-Fc; assay: ELISA on coated human Fas-Fc (FIG. 6C)
Description: FIG. 6. Specific binding of the anti-EDAR mAb to both mouse and human EDAR. Graded concentrations of mAbEDAR1-4 or of a control mAb (Aprily 5) were added to wells of a 96-well ELISA plate coated with 100 μl of 1 μg/ml of human EDAR-Fc, mouse EDAR-Fc, human Fas-Fc or Flag-human APRIL. […] The absorbance was measured at 490 nm.
In order to obtain antibodies recognizing both human and mouse EDAR, a feature which would considerably facilitate pre-clinical development of drug candidates, EDAR-deficient mice were immunized with human EDAR. It was then assessed whether monoclonal antibodies generated from these mice indeed recognized EDAR from these two animal species. The wells of microtiter plates were coated with soluble human and mouse EDAR-Fc fusion protein and a negative control protein (human Fas-Fc), blocked and probed with serial dilutions of anti-EDAR monoclonal antibody (mAb) mAbEDAR1, 2, 3 and 4 and a negative control mAb (Aprily 5) (FIG. 6), or with a single dose of mAbEDAR1 to 15 (FIG. 9).

Flag-human APRIL = molecular target: T8, Flag-human APRIL; assay: Western blot (FIG. 7A)
Description: FIG. 7. Use of anti-EDAR mAb in Western blotting.
as §1

| Binder | binding result (human Fas-Fc [1]) | binding result (mouse EDAR-Fc) | binding result [2] | binding result [3] | binding result (human EDAR-Fc) | EC50 (concentration of agonist inducing half maximal decrease of cell viability), EDAR-Fas Jurkat cells [4] [ng/mL] | EC50 (concentration of agonist inducing half maximal decrease of cell viability), hEDAR-Fas Jurkat cells [5] [ng/mL] | EC50 (concentration of agonist inducing half maximal decrease of cell viability), mEDAR-Fas Jurkat cells [6] [ng/mL] | binding result [7] | binding result [8] | binding result [9] | binding result (human Fas-Fc [10]) | binding result (Flag-human APRIL) |
| --- | --- | --- | --- | --- | --- | --- | --- | --- | --- | --- | --- | --- | --- |
| B1 | no binding | binds | binds | binds | binds |  |  |  |  |  |  |  |  |
| B2 | no binding | binds | binds | binds | binds |  |  |  |  |  |  |  |  |
| B3 |  |  |  |  |  | 3 to 9 | ~1 | ~1 |  |  |  |  |  |
| B4 |  |  | binds |  |  |  |  |  | no binding | no binding | no binding | no binding | no binding |
| B5 | no binding |  | binds |  |  |  |  |  | no binding | no binding | no binding |  | no binding |
